Experimental data as given in patent publication US20020137677A1.

What was measured:
Experiment in all cases: cell-based or functional assay
[1] = target: human zalpha11 receptor, full-length, on cells (human) (UniProt Q9HBE5)
[2] = target: mouse zalpha11 receptor, on cells (mouse)
[3] = target: human zalpha11 Ligand (human) (UniProt Q9HBE4)
UniProt Q9HBE4, sequence (Q9HBE4 32-162 limits assumed, form in doubt): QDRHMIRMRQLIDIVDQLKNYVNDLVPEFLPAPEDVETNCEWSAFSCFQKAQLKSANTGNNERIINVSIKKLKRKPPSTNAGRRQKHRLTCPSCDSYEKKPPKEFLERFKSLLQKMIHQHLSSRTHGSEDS

UniProt Q9HBE5, sequence (Q9HBE5 20-538 limits assumed): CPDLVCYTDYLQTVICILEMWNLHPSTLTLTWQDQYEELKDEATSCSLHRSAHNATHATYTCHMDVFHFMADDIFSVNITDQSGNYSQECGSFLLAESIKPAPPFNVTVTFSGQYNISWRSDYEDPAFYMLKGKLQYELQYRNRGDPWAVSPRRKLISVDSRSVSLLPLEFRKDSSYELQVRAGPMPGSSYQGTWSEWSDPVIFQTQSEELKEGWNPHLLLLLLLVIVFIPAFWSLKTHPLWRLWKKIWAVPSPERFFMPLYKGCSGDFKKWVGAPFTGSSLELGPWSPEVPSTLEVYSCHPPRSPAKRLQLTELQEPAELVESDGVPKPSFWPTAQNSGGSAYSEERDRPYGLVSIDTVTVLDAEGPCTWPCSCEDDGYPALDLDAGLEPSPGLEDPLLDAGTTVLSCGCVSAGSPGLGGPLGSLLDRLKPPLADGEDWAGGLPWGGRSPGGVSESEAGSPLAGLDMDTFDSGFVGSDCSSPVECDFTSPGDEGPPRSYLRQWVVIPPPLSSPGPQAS

| Substance | STAT luciferase reporter response of BaF3/KZ134/Zalpha11 cells (fold over media-only control) [1] | proliferation of BaF3/Zalpha11 cells (Alamar Blue) (fold over background) [1] | STAT luciferase reporter response of untransfected BaF3/KZ134 control cells [2] [fold] | inhibition of BaF3/zalpha11 proliferation (Alamar Blue), concentration completely inhibiting 3 ng/ml human zalpha11 Ligand [3] [µg/mL] | potency in inhibiting human zalpha11 Ligand relative to the homodimeric soluble zalpha11 receptor (zalpha11-Fc4) [3] [fold] |
| --- | --- | --- | --- | --- | --- |
| mouse zalpha11 Ligand | 40 | 5 | 5 |  |  |
| soluble human zalpha11 receptor/human IL-2Rγ receptor heterodimer (hzalpha11/IgGγ1 + hIL-2Rγ/human κ light chain) (Fc fusion) |  |  |  | 0.312 | 30 to 100 |
